From PMC10497406, “PCNA recruits cohesin loader Scc2 to ensure sister chromatid cohesion” (Nature Structural & Molecular Biology, 2023)

T1: GST–Scc2^C1100 (Scc2 amino acids 394–1493 fused to GST) (S. cerevisiae, UniProt Q04002 394-1493)
T1 construct: also called nearly full-length Scc2 fused to GST; not shown: GST, N-terminal, kept
T1 sequence (looked up): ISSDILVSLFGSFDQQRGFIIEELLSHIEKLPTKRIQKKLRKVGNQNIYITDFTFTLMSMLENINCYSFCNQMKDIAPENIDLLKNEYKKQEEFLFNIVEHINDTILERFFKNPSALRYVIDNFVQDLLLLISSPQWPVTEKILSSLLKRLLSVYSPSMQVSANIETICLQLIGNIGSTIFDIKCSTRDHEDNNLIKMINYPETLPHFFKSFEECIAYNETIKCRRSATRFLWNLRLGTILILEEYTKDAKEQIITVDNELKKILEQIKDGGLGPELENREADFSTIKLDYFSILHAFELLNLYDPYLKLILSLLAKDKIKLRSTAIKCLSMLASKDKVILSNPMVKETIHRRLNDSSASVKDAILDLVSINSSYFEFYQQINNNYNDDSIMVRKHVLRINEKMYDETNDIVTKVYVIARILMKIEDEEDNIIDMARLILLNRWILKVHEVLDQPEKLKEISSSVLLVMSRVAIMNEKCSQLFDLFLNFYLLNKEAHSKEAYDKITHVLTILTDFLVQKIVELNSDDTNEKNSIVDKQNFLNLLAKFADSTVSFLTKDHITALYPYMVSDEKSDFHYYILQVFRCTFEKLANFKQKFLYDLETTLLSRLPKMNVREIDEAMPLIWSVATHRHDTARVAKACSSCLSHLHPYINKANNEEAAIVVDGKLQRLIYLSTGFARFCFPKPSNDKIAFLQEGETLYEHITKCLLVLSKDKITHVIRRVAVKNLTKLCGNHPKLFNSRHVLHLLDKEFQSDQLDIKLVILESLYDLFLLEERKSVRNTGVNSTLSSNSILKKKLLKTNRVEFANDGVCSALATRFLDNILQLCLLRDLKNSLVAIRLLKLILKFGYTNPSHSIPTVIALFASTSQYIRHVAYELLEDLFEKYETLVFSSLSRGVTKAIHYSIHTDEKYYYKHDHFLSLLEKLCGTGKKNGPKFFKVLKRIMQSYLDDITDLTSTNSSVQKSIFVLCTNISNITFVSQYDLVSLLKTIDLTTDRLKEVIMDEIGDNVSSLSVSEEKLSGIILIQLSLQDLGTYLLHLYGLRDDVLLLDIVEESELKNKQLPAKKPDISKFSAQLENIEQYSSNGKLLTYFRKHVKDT

B1: N-terminally His-tagged yeast Pol30 (PCNA) (natural protein, S. cerevisiae, UniProt P15873 1-258, looked up)
chain: MLEAKFEEASLFKRIIDGFKDCVQLVNFQCKEDGIIAQAVDDSRVLLVSLEIGVEAFQEYRCDHPVTLGMDLTSLSKILRCGNNTDTLTLIADNTPDSIILLFEDTKKDRIAEYSLKLMDIDADFLKIEELQYDSTLSLPSSEFSKIVRDLSQLSDSINIMITKETIKFVADGDIGSGSVIIKPFVDMEHPETSIKLEMDQPVDLTFGAKYLLDIIKGSSLSDRVGIRLSSEAPALFQFDLKSGFLQFFLAPKFNDEE
notes: Pol30 (PCNA), S. cerevisiae; no measurement of the oligomer here; also called HisPol30; yeast PCNA; not shown: His, N-terminal, kept

Tests used:
Details in all cases: both partners purified
[1] = molecular target: T2, N-terminally His-tagged chicken PCNA (chicken, UniProt Q9DEA3 1-262); assay: pull-down; GST–NIPBL fusions (chicken) on glutathione Sepharose 4B beads, recombinant N-terminally His-tagged chicken PCNA; blots with anti-PCNA and anti-GST
T2 construct: PCNA, chicken; also called HisPCNA; recombinant chicken PCNA; not shown: His, N-terminal, kept

[2] = molecular target: B1; assay: pull-down; GST–Scc2 fusions on glutathione Sepharose 4B beads, purified His-tagged yeast Pol30 (2.5 μg) in 0.7 ml binding buffer (1× PBS, 150 mM NaCl, 1% Triton X-100), overnight at 4 °C; western blot with anti-Pol30
[3] = molecular target: T1, GST–Scc2^C1100 (Scc2 amino acids …); assay: as above

T2 sequence (Q9DEA3 whole entry, the tested form may be a part): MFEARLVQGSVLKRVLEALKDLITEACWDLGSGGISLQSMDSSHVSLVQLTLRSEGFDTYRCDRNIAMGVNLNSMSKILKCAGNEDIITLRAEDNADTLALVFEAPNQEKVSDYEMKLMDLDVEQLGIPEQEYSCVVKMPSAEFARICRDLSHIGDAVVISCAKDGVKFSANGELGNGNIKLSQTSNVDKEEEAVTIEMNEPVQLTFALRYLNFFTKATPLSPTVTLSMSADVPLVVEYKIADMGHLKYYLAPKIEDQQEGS

| binding result [1] | Binder | also measured |
| --- | --- | --- |
| binds | TNKVVATARSLAAAKDGTSS (domain or fragment, UniProt F1NJ66 2764-2783, looked up, not shown: GST, N-terminal, kept) [GST–NIPBL-pip2 (chicken NIPBL amino acids 2764–2783, Q2769A,L2771A,Y2775A, fused to GST)] |  |
|  | YSSNGKLLTYFRKHVKDT (domain or fragment, S. cerevisiae, UniProt Q04002 1476-1493, looked up, also called PIP of Scc2 fused to GST; last 18 amino acids of Scc2; not shown: GST, N-terminal, kept) [GST–Scc2PIP (Scc2 residues 1476–1493 fused to GST)] | binding result [2]: binds |
| binds | GST–NIPBL^(C202 WT) (chicken NIPBL residues 2582–2783 fused to GST) (domain or fragment, UniProt F1NJ66 2582-2783, looked up, also called NIPBL C-terminal fragment (C202); not shown: GST, N-terminal, kept) ANSKITEEVKRSIVKQYLDFKLLMEHLDPDEEEEDGEVSASTNARNKAITSLLGGGSPKNNAAETEDDESDGEDRGGGTSGSLRRSKRNSDSTELASQMNESVDVMDVIAICCPKYKDRPQIARVVQKTSNGFSVQWMAGSYSGSWTEAKRRDGRKLVPWVDTIKESDIIYKKIALTSANKLTNKVVQTLRSLYAAKDGTSS |  |
| binds | GST–NIPBL^(C202 pip1) (chicken NIPBL residues 2582–2783 with PIP1 mutated, fused to GST) (domain or fragment, UniProt F1NJ66 2582-2783, looked up, also called NIPBL^Q2597A,L2599A,F2601A; not shown: GST, N-terminal, kept) ANSKITEEVKRSIVKAYADAKLLMEHLDPDEEEEDGEVSASTNARNKAITSLLGGGSPKNNAAETEDDESDGEDRGGGTSGSLRRSKRNSDSTELASQMNESVDVMDVIAICCPKYKDRPQIARVVQKTSNGFSVQWMAGSYSGSWTEAKRRDGRKLVPWVDTIKESDIIYKKIALTSANKLTNKVVQTLRSLYAAKDGTSS |  |
| binds | TNKVVQTLRSLYAAKDGTSS (domain or fragment, UniProt F1NJ66 2764-2783, looked up, not shown: GST, N-terminal, kept) [GST–NIPBL-PIP2 (chicken NIPBL amino acids 2764–2783 fused to GST)] |  |
|  | B1 | binding result [3]: binds |
